Data reported in publication PMC3924328, “Structure of the S100A4/myosin-IIA complex” (BMC Structural Biology, 2013).

Experiments:
[1] = ref [45]; cited from earlier work
From the text: An interesting feature of the S100A4/myosin-IIA complex is that myosin-IIA residues contributing to the coiled-coil interface also mediate S100A4 binding.

S100A4 [2] = target: T1, S100A4 (Homo sapiens, UniProt P26447); assay: Sedimentation velocity of MIIA^1851-1960, S100A4 and S100A4/MIIA^1851-1960 mixtures; assay type: physicochemical; conditions: sedimentation velocity, protein alone
T1 construct: heteronuclear single quantum coherence spectrum (HSQC) of full-length Ca^2+-S100A4 at 600 MHz; made in house; host or cells: E. coli, M9 medium with 15N NH4Cl (BL21(DE3)* is named for the unlabelled protein)
T1 sequence (P26447 2-101 limits assumed, one chain of several): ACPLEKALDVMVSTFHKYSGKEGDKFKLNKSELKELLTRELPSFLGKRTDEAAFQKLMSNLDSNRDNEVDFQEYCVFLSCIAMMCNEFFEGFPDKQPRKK
Protocol: (§1) Sedimentation equilibrium and velocity experiments were conducted at 22°C in a Beckman XL-I analytical ultracentrifuge using a Ti60 rotor and Raleigh interference optics. Wild-type S100A4 and MIIA^1851-1960 were dialyzed into 20 mM Tris pH 7.5, 150 mM KCl, 0.5 mM CaCl2, 1 mM TCEP and 0.02% NaN3 and clarified by ultracentrifugation at 80,000 rpm for 10 minutes at 4°C in TLA 120.2 rotor. Sedimentation equilibrium analysis of MIIA^1851-1960 and S100A4 was conducted in six channel centerpieces by sequentially equilibrating the protein at three concentrations for 24 hr at 12,000, 20,000 and 28,000 rpm and globally analyzing the data using HeteroAnalysis v1.1.44 (James L. Cole and Jeffrey W. Lary). The sedimentation velocity experiments were conducted at 53,000 rpm using double sector centerpieces and analyzed using DCDT + v2.4.0 [57, 58]. The best-fit parameters and their 95% joint confidence intervals are reported. The calculated masses of the wild-type S100A4 and MIIA^1851-1960 monomers are 11,597.3 and 12,397.5 Da, respectively. Values of ν-bar = 0.715 for S100A4/MIIA^851-1960 and 0.735 for S100A4, ρ = 1.0059, μ = 1.00586 cp were calculated using Sednterp v1.06 (Hayes, B., T. Laue & J. Philo, Sedimentation Interpretation Program. 2003, University of New Hampshire) from the amino acid and buffer compositions, respectively.

[3] = Circular dichroism: secondary structure and thermal stability; assay type: physicochemical
Protocol: MIIA^1851-1960 was dialyzed into 20 mM Tris pH 7.5, 150 mM KCl, 0.5 mM CaCl2, 0.02% NaN3 and clarified by ultracentrifugation at 80,000 rpm for 10 minutes at 4°C in TLA 120.2 rotor. MIIA^1851-1960 (40 μM monomer concentration) was transferred to a 1 mm path-length quartz cuvette and scanned in Jasco J-815 Spectrometer equipped with a PFD-425 temperature controller. Spectra from 190 to 260 nm were obtained at 22°C using a scan speed of 100 nm/minute, a 1 nm bandwidth, and a sensitivity of 100 mdeg. Thermal melt curves were obtained by monitoring ellipticity at 222 nm while the sample temperature was increased from 2 – 85°C in 2°C intervals at a rate of 60°C/h, using a 1 nm bandwidth. The data were fit to a sigmoidal dose–response with a variable slope using Graphpad Prism v5.

[4] = Sedimentation equilibrium of MIIA^1851-1960 and S100A4/MIIA^1851-1960 mixtures; assay type: physicochemical, human; conditions: 22°C, MIIA^1851-1960 alone, 20 mM Tris pH 7.5, 150 mM KCl, 0.5 mM CaCl2, 1 mM TCEP, 0.02% NaN3, predicted 24,795
Protocol: as §1

S100A4 [5] = target: T1, S100A4; assay: as above; assay type: physicochemical; conditions: 22°C
Protocol: as §1

Row | Molecule | Tm [1] | Peak 1 S20,w (S100A4 [2]; 22°C, 53,000 rpm, 20 mM Tris pH 7.5, 150 mM KCl, 0.5 mM CaCl2, 1 mM TCEP, 0.02% NaN3) | Peak 1 MW (S100A4 [2]; 22°C) | S value (S100A4 [2]; 22°C) | [Peak 1] (green), relative amount of plateau concentrations (S100A4 [2]; 22°C) | Reversibility of thermal unfolding ([3]; CD, 222 nm, data not shown) | Transition midpoint (Tm) for unfolding ([3]; CD, ellipticity at 222 nm, 40 μM monomer, 20 mM Tris pH 7.5, 150 mM KCl, 0.5 mM CaCl2, 0.02% NaN3, 2 – 85°C at 60°C/h, average of two independent experiments) | Secondary structure by CD ([3]; far-UV, 190 to 260 nm, 22°C, 40 μM MIIA^1851-1960 monomer, pH 7.5) | Experimental MW (weight-average molecular mass) [4] | Oligomeric state (S100A4 [5])
1 | myosin-IIA rod (residues 1102–1960): myosin-IIA rod, residues 1102–1960 (protein, UniProt P35579 1102-1960, looked up, fragment) ALKKIRELESQISELQEDLESERASRNKAEKQKRDLGEELEALKTELEDTLDSTAAQQELRSKREQEVNILKKTLEEEAKTHEAQIQEMRQKHSQAVEELAEQLEQTKRVKANLEKAKQTLENERGELANEVKVLLQGKGDSEHKRKKVEAQLQELQVKFNEGERVRTELADKVTKLQVELDNVTGLLSQSDSKSSKLTKDFSALESQLQDTQELLQEENRQKLSLSTKLKQVEDEKNSFREQLEEEEEAKHNLEKQIATLHAQVADMKKKMEDSVGCLETAEEVKRKLQKDLEGLSQRHEEKVAAYDKLEKTKTRLQQELDDLLVDLDHQRQSACNLEKKQKKFDQLLAEEKTISAKYAEERDRAEAEAREKETKALSLARALEEAMEQKAELERLNKQFRTEMEDLMSSKDDVGKSVHELEKSKRALEQQVEEMKTQLEELEDELQATEDAKLRLEVNLQAMKAQFERDLQGRDEQSEEKKKQLVRQVREMEAELEDERKQRSMAVAARKKLEMDLKDLEAHIDSANKNRDEAIKQLRKLQAQMKDCMRELDDTRASREEILAQAKENEKKLKSMEAEMIQLQEELAAAERAKRQAQQERDELADEIANSSGKGALALEEKRRLEARIAQLEEELEEEQGNTELINDRLKKANLQIDQINTDLNLERSHAQKNENARQQLERQNKELKVKLQEMEGTVKSKYKASITALEAKIAQLEEQLDNETKERQAACKQVRRTEKKLKDVLLQVDDERRNAEQYKDQADKASTRLKQLKRQLEEAEEEAQRANASRRKLQRELEDATETADAMNREVSSLKNKLRRGDLPFVVPRRMARKGAGDGSDEEVDGKADGAEAKPAE | 45 °C |  |  |  |  |  |  |  |  | 
2 | MIIA^1851-1960: C-terminal fragment of the human myosin-IIA heavy chain that corresponds to residues 1851–1960 (protein) VDDERRNAEQYKDQADKASTRLKQLKRQLEEAEEEAQRANASRRKLQRELEDATETADAMNREVSSLKNKLRRGDLPFVVPRRMARKGAGDGSDEEVDGKADGAEAKPAE |  | 1.91 ± 0.01 | 18.5 ± 0.2 kDa | 1.91 S | 2.09 ± 0.02 | reversible | 27 °C | primarily α-helical | 25,651 ± 308 Da | we did not detect any monomer
